{
  "source": "patent US20250043302A1",
  "about": "“MUTATED HYDROXYPHENYLPYRUVATE DIOXYGENASE POLYPEPTIDE, AND CODING GENE AND USE THEREOF” (BEIJING DABEINONG BIOTECHNOLOGY CO., LTD., priority 2021, published 2025)",
  "type_in_all_cases": "in vivo",
  "key": {"[1]": {"tested_on": "Arabidopsis thaliana T1 plants", "assay": "Topramezone tolerance of transgenic Arabidopsis thaliana T1 plants (spray, bleached leaf area grade, damage score)", "conditions": "7 DAT, Table 4; for Classification and statistics of the grade of pesticide damage: Grade 0 / Classification and statistics of the grade of pesticide damage: Grade 1 / Classification and statistics of the grade of pesticide damage: Grade 2 / Classification and statistics of the grade of pesticide damage: Grade 3: number of plants; for Scores: pesticide damage score 0-100", "summary_of_the_method": "(§1)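 Read-out: per-plant damage grade 0–3 from proportion of bleached leaf area at 7 DAT (1 <50%, 2 >50%, 3 100%). Plants were T1 transformants, glufosinate-selected, plus wild-type CK, sprayed 18 days post-sowing. Rates: topramezone 25–200, isoxaflutole 35–280, mesotrione 52.5–420 g ai/ha.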"}, "[2]": {"tested_on": "Arabidopsis thaliana T1 plants", "assay": "Isoxaflutole tolerance of transgenic Arabidopsis thaliana T1 plants (spray, bleached leaf area grade, damage score)", "parameters": "Scores (pesticide damage): scale not given here", "conditions": "spray, Arabidopsis thaliana T1 plants; for Classification and statistics of the grade of pesticide damage: Grade 0 (number of plants) / Classification and statistics of the grade of pesticide damage: Grade 1 (number of plants) / Classification and statistics of the grade of pesticide damage: Grade 2 (number of plants) / Classification and statistics of the grade of pesticide damage: Grade 3 (number of plants): 16 plants", "summary_of_the_method": "as §1"}, "[3]": {"tested_on": "Arabidopsis thaliana T1 plants", "assay": "Mesotrione tolerance of transgenic Arabidopsis thaliana T1 plants (spray, bleached leaf area grade, damage score)", "parameters": "Scores: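 damage score 0-100 computed as Σ(N×S)/(T×M)×100 over grades 0-3 with higher meaning more damage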", "conditions": "Arabidopsis thaliana T1 plants; for Grade 0 (classification and statistics of the grade of pesticide damage; number of plants) / Grade 1 (classification and statistics of the grade of pesticide damage; number of plants) / Grade 2 (classification and statistics of the grade of pesticide damage; number of plants) / Grade 3 (classification and statistics of the grade of pesticide damage; number of plants): 16 plants", "summary_of_the_method": "as §1"}, "[4]": {"conditions": "isoxaflutole 35 g ai/ha (0.5x field concentration)"}, "[5]": {"conditions": "isoxaflutole 70 g ai/ha (1x field concentration)"}},
  "data": [
    {"molecule": "MsHPPDm-F383W-02: nucleotide sequence encoding Medicago sativa HPPD with F383W; vector DBN11736 (nucleic acid, MsHPPDm-F383W-02 Nucleotide Sequence, vector DBN11736) DNA: ATGGCTATTGAAACCGAAACACAAACTCAGACTGGATTTAAACTGGTAGGGTTCAAGAATTTCGTTAGGGCTAATCCCAAGTCTGATCGTTTTAAGGTCAAGAGGTTCCACCACGTGGAGTTCTGGTGCACTGATGCAACCAACACGGCGCGGCGTTTTTCACATGGTCTTGGAATGCCTATTGTTGCAAAATCCGACCTCTCCACGGGGAACCAAACACACGCCTCTTACCTGCTACGGAGTGGTGACTTGAACTTCCTCTTCAGCGCCGCCTACTCACCCTCCATATCGTTGTCTTCACCATCCTCGACCGCAGCAATTCCTACATTTTCTGCGAGCAACTGCTTCTCTTTCTCTGCCAGTCATGGCCTCGCCGTCAGAGCAGTGGCCGTTGAAGTAGAGGATGCTGAACTTGCTTTTACAACTTCAGTGAATAATGGAGCAATACCGAGCAGTCCGCCGGTCATACTTGAGAATCATGTGAAGCTAGCGGAGGTGAGGCTTTATGGGGACGTCGTTTTAAGATATGTCAGCTACAATGATCCAAACCCCAATCAAAATCCAAATTTGTTGTTCCTTCCTGGCTTCGAGCGTGTTAGCGATGAATCTTCAAACTCTTCACTGGATTTTGGAATCAGACGGTTGGATCATGCTGTTGGAAATGTTCCTGAACTCTCGAGCGCTGTGAAATATGTGAAGGACTTCACCGGTTTTCATGAATTTGCTGAGTTTACTGCAGAAGATGTGGGTACATCAGAGAGTGGCTTGAATTCCGTGGTGCTCGCCAACAACGAGGAGACTGTACTCTTACCAATGAATGAGCCAGTCTATGGCACCAAGCGTAAATCTCAAATTGAGACATATTTGGAGCACAATGAAGGAGCTGGACTTCAGCATCTCGCGCTGAAGAGTGAGGACATCTTCCGCACCCTACGGGAGATGAGGAAAAGAAGTGGTGTTGGTGGGTTTGAATTCATGCCATCACCTCCTGTCACCTACTACAGGAACCTGAAGAACAGAGTTGGTGATGTACTTTCGGACGAGCAGATAAAGGAATGTGAAGAGTTGGGGATTTTGGTTGATAGAGATGATCAAGGAACACTCCTGCAGATTTTTACAAAACCAATTGGCGACCGCCCCACTATCTGGATAGAGATCATCCAGAGGGTGGGGTGCATGCTCAAAGACGAGGAAGGGAAGGAGTACCAGAAGGGCGGCTGTGGTGGTTTTGGGAAAGGAAACTTTTCTGAGTTATTCAAATCAATTGAAGAGTATGAGAAGACGCTTGAAACGCGTCGCACTGCTTGA", "values": [
      {"measurement": "Classification and statistics of the grade of pesticide damage: Grade 0", "setting": "[1]; topramezone 25 g ai/ha (1×)", "value": 0},
      {"measurement": "Classification and statistics of the grade of pesticide damage: Grade 1", "setting": "[1]; topramezone 25 g ai/ha (1×)", "value": 0},
      {"measurement": "Classification and statistics of the grade of pesticide damage: Grade 2", "setting": "[1]; topramezone 25 g ai/ha (1×)", "value": 4},
      {"measurement": "Classification and statistics of the grade of pesticide damage: Grade 3", "setting": "[1]; topramezone 25 g ai/ha (1×)", "value": 12},
      {"measurement": "Classification and statistics of the grade of pesticide damage: Grade 0", "setting": "[1]; topramezone 100 g ai/ha (4×)", "value": 0},
      {"measurement": "Classification and statistics of the grade of pesticide damage: Grade 1", "setting": "[1]; topramezone 100 g ai/ha (4×)", "value": 0},
      {"measurement": "Classification and statistics of the grade of pesticide damage: Grade 2", "setting": "[1]; topramezone 100 g ai/ha (4×)", "value": 0},
      {"measurement": "Classification and statistics of the grade of pesticide damage: Grade 3", "setting": "[1]; topramezone 100 g ai/ha (4×)", "value": 16},
      {"measurement": "Scores", "setting": "[1]; topramezone 25 g ai/ha (1×)", "value": 92},
      {"measurement": "Scores", "setting": "[1]; topramezone 100 g ai/ha (4×)", "value": 100},
      {"measurement": "Resistance evaluation", "setting": "[1]; topramezone 25 g ai/ha (1×)", "value": "non-resistant (non-resistant plants (scores 68-100))"},
      {"measurement": "Resistance evaluation", "setting": "[1]; topramezone 100 g ai/ha (4×)", "value": "non-resistant (non-resistant plants (scores 68-100))"},
      {"measurement": "Resistance evaluation", "setting": "[2]; [4]", "value": "Non-resistant"},
      {"measurement": "Scores (pesticide damage)", "setting": "[2]; [4]", "value": 88},
      {"measurement": "Classification and statistics of the grade of pesticide damage: Grade 0 (number of plants)", "setting": "[2]; [4]", "value": 0},
      {"measurement": "Classification and statistics of the grade of pesticide damage: Grade 1 (number of plants)", "setting": "[2]; [4]", "value": 0},
      {"measurement": "Classification and statistics of the grade of pesticide damage: Grade 2 (number of plants)", "setting": "[2]; [4]", "value": 6},
      {"measurement": "Classification and statistics of the grade of pesticide damage: Grade 3 (number of plants)", "setting": "[2]; [4]", "value": 10},
      {"measurement": "Resistance evaluation", "setting": "[2]; [5]", "value": "Non-resistant"},
      {"measurement": "Scores (pesticide damage)", "setting": "[2]; [5]", "value": 100},
      {"measurement": "Classification and statistics of the grade of pesticide damage: Grade 0 (number of plants)", "setting": "[2]; [5]", "value": 0},
      {"measurement": "Classification and statistics of the grade of pesticide damage: Grade 1 (number of plants)", "setting": "[2]; [5]", "value": 0},
      {"measurement": "Classification and statistics of the grade of pesticide damage: Grade 2 (number of plants)", "setting": "[2]; [5]", "value": 0},
      {"measurement": "Classification and statistics of the grade of pesticide damage: Grade 3 (number of plants)", "setting": "[2]; [5]", "value": 16},
      {"measurement": "Resistance evaluation", "setting": "[3]; mesotrione 52.5 g ai/ha", "value": "Non-resistant"},
      {"measurement": "Scores", "setting": "[3]; mesotrione 52.5 g ai/ha", "value": 100},
      {"measurement": "Grade 0 (classification and statistics of the grade of pesticide damage; number of plants)", "setting": "[3]; mesotrione 52.5 g ai/ha", "value": 0},
      {"measurement": "Grade 1 (classification and statistics of the grade of pesticide damage; number of plants)", "setting": "[3]; mesotrione 52.5 g ai/ha", "value": 0},
      {"measurement": "Grade 2 (classification and statistics of the grade of pesticide damage; number of plants)", "setting": "[3]; mesotrione 52.5 g ai/ha", "value": 0},
      {"measurement": "Grade 3 (classification and statistics of the grade of pesticide damage; number of plants)", "setting": "[3]; mesotrione 52.5 g ai/ha", "value": 16},
      {"measurement": "Resistance evaluation", "setting": "[3]; mesotrione 105 g ai/ha", "value": "Non-resistant"},
      {"measurement": "Scores", "setting": "[3]; mesotrione 105 g ai/ha", "value": 100},
      {"measurement": "Grade 0 (classification and statistics of the grade of pesticide damage; number of plants)", "setting": "[3]; mesotrione 105 g ai/ha", "value": 0},
      {"measurement": "Grade 1 (classification and statistics of the grade of pesticide damage; number of plants)", "setting": "[3]; mesotrione 105 g ai/ha", "value": 0},
      {"measurement": "Grade 2 (classification and statistics of the grade of pesticide damage; number of plants)", "setting": "[3]; mesotrione 105 g ai/ha", "value": 0},
      {"measurement": "Grade 3 (classification and statistics of the grade of pesticide damage; number of plants)", "setting": "[3]; mesotrione 105 g ai/ha", "value": 16}
    ]}
  ]
}
